Measurements: article PMC10996701

Target: yeast RPA (yRPA, ScRPA) (Saccharomyces cerevisiae, UniProt P22336;P26754;P26755 1-621;1-273;1-122)
Assay: DEER

Sequence of yeast RPA (yRPA, ScRPA) (P22336 whole entry, chain 1 of 3): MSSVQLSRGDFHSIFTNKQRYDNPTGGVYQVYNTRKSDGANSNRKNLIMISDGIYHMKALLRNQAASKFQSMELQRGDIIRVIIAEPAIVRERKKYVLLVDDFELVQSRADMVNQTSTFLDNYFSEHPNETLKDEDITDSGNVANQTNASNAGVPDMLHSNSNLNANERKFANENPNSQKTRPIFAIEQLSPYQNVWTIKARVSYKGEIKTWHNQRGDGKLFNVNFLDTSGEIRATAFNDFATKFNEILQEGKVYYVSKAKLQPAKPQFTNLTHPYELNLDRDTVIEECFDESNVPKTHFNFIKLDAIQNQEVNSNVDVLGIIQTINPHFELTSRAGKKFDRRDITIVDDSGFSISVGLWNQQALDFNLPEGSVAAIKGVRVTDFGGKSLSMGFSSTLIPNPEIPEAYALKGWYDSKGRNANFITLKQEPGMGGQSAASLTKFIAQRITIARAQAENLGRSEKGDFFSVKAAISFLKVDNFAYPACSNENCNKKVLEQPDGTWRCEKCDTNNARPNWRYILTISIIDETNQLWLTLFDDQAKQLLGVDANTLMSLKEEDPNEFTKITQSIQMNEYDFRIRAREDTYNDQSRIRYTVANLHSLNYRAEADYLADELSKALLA
Sequence of yeast RPA (yRPA, ScRPA) (P26754 whole entry, chain 2 of 3): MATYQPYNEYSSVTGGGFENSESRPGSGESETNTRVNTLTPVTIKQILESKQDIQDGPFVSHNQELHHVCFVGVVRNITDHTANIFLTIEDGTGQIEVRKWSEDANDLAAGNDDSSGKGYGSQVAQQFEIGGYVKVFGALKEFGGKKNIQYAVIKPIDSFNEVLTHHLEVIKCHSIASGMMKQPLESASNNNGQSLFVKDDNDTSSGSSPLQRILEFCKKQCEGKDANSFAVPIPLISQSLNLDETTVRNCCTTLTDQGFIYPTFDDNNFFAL
Sequence of yeast RPA (yRPA, ScRPA) (P26755 whole entry, chain 3 of 3): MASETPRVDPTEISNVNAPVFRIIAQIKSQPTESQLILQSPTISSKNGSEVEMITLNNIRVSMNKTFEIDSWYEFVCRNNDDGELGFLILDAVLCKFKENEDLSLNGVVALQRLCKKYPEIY

B1: (dT)22 DEER (ssDNA)
DNA: UTTTTTTTTTTTTTTTTTTTTTTUT
modifications: M = 2'-aminouridine spin-labelled with isoindoline nitroxide, at the two U positions (1 and 24)
Does B1 bind?
Result: binds
